Laboratory results from paper PMC9516341.

Molecular target: Flag-tagged ARNO (p3XFLAG-2-mCytohesin-2)
Test: co-immunoprecipitation (anti-FLAG M2 IP of FLAG-ARNO, immunoblot for FE65, quantified)
Settings: transfected cell lysate; three independent experiments; unpaired t-test, *p < 0.001; parent: 1

ratio to parent: 0.34
Substance: Myc-tagged FE65 (from UniProt O00213) R605A
